For one experiment, the target named is T1, Pep5 (human, N-terminal biotin).
T1 construct: Synthetic 20-mer of human IL-33
T1 peptide: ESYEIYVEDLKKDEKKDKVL
The experiment in a line: ELISA, biotinylated peptide on streptavidin plate, antibody 10 µg/mL, well 2. On the procedure:
(§1) To determine the binding activity of antibody to each polypeptide fragment, the ELISA plate was pre-coated by biotin-avidin (SA) which was diluted in coating solution (50 mM carbonate coating buffer, pH 9.6) to 2 μg/ml at 4° C. overnight. The plate was washed with PBST for 3 times, and then blocked with 2% BSA prepared in PBS at room temperature for 2 h with 200 μL/well. The plate was washed once with PBST, and 864F3 and 874F7 with final concentrations of 10 μg/mL were added at 100 μL/well, respectively, and the plate was incubated at room temperature for 1 h. The plate was washed with PBST for 3 times, and the goat anti-mouse IgG labeled by HRP was added and placed at 37° C. for 30 min. After washing the plate with PBST for 3 times, the plate was patted on the absorbent paper to remove residual droplets as far as possible. 100 μl TMB developing solution was added to each well, and the plate was placed at room temperature (20±5° C.) for 5 minutes away from light; 50 μl 2M H₂SO₄ terminating solution was added to each well to terminate the substrate reaction. OD values were read at 450 nm on the microplate reader to analyze the binding ability of the antibody to each polypeptide fragment. The experimental results are shown in […]

The target of the next experiment is T2, Pep6 (human, N-terminal biotin).
T2 construct: Synthetic 20-mer of human IL-33
T2 peptide: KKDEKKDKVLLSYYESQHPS
The description is as above. How it is done:
as §1

Another experiment addresses T3, Pep9 (human, N-terminal biotin).
T3 construct: Synthetic 20-mer of human IL-33
T3 peptide: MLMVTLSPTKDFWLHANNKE
The description is as above. How it is done:
as §1

The target of a further experiment is T4, Pep3 (human, N-terminal biotin).
T4 construct: Synthetic 20-mer of human IL-33
T4 peptide: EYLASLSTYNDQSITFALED
The experiment is described as above. On the procedure: as §1

In another experiment the target is T5, Pep4 (human, N-terminal biotin).
T5 construct: Synthetic 20-mer of human IL-33
T5 peptide: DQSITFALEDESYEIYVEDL
The description is as above. How it is done:
as §1

The target in the next experiment is T6, Pep11 (human, N-terminal biotin).
T6 construct: Synthetic 20-mer of human IL-33
T6 peptide: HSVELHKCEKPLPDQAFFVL
The description is as above. How it is done: as §1

For a further experiment, the target named is T7, Pep1 (human, N-terminal biotin).
T7 construct: Synthetic 20-mer of human IL-33
T7 peptide: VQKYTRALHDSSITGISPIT
Described as above. How it is done: as §1

The target of a further experiment is T8, Pep10 (human, N-terminal biotin).
T8 construct: Synthetic 20-mer of human IL-33
T8 peptide: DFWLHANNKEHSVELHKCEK
The description is as above. How it is done: as §1

Another experiment deals with T9, Pep7 (human, N-terminal biotin).
T9 construct: Synthetic 20-mer of human IL-33
T9 peptide: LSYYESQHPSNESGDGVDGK
Described as above. On the procedure: as §1

For another experiment, the target named is T10, Pep2 (human, N-terminal biotin).
T10 construct: Synthetic 20-mer of human IL-33
T10 peptide: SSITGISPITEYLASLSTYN
The experiment is described as above. How it is done: as §1

For another experiment, the target named is T11, Pep8 (human, N-terminal biotin).
T11 construct: Synthetic 20-mer of human IL-33
T11 peptide: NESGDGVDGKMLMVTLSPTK
The experiment is described as above. How it is done:
as §1

The next experiment has as its target T12, Pep15 (human, N-terminal biotin).
T12 construct: Synthetic 20-mer of human IL-33
T12 peptide: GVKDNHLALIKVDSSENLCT
The description is as above. On the procedure:
as §1

The target of the next experiment is T13, Pep12 (human, N-terminal biotin).
T13 construct: Synthetic 20-mer of human IL-33
T13 peptide: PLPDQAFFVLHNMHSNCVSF
The experiment is described as above. How it is done: as §1

For experiment [1], the target named is T14, IL-33 mutant protein H58A (human, UniProt O95760 112-270).
T14 construct: Prokaryotic expression
T14 chain: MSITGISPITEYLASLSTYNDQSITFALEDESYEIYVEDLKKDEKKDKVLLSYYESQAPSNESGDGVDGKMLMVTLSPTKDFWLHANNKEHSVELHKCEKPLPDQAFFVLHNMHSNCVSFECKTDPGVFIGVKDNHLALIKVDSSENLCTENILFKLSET
The experiment in a line: ELISA as Example 9; row H58A. How it is done: SA protein was diluted to 2 μg/mL to coat ELISA plate at 100 μL/well overnight at 4° C. The plate was washed with PBST (PBS containing 0.05% Tween20) for 3 times, and blocked with 2% BSA prepared in PBS at 200 μL/well, at room temperature for 2 h. After the plate was washed twice with PBST, IL-33-his-biotin protein was diluted to 1 μg/mL with 1% BSA prepared in PBST, and was added to ELISA plate at 100 μL/well. The plate was incubated at room temperature for 1 h, and each monoclonal antibody was diluted with 1% BSA prepared in PBST in a 3-fold gradient. The highest concentration of antibody was 10 μg/mL, and the antibody was diluted for 12 gradients. Each diluted monoclonal antibody was added to ELISA wells with 100 μL/well, and the plate was incubated at room temperature for 1 h. Each sample was added to duplicate wells in parallel. The plate was washed with PBST for 3 times, and HRP-anti human IgG Fc secondary antibody prepared with PBST was diluted at an appropriate ratio, and was added to ELISA wells at 100 μL/well. […] Each reaction solution was shaken uniformly and OD450 nm was read on a microplate reader. The data was analyzed and EC₅₀ was calculated.
Subsequently, according to the experimental method of Example 9, the affinity of the above mutant proteins to 874F7-Hu1 was determined, and IL-33 proteins (WT-1, WT-2, WT-3, and WT-4) without any mutation were set as controls.

B1: 874F7 (antibody, V domains shown)
VH: QVQLKESGPGLVAPSHSLSITCNVSGFSLSKYGVHWIRQIPGRGLDWLGVLRAGGSTGYNSALMSRLSISKDSSKSQVFLKMNDLRTDDTAVYFCVRDHYYYSSYGGFVYWGQGTLVTVSA
VL: DIQMTQSPASQSASLGESVTITCLASQTIGAWLAWYRQQPGKSPQLLIYAATRLADGVPSRFSGSGSGTEFSFKINNLQAEDFVSYYCQQLDSSPYTFGGGTRLEM
notes: Murine hybridoma antibody purified on Protein G; also called murine antibody 874F7
Consider B1, for which the OD450 was 0.049 OD450 with Pep5; 1.03 OD450 in the experiment with Pep6; 0.061 OD450 in the experiment with Pep9; 0.048 OD450 with Pep3; 0.048 OD450 with Pep4; 0.053 OD450 in the experiment with Pep11. Also, the OD450 with Pep1 stood at 0.061 OD450; with Pep10 it was 0.052 OD450; with Pep7, 0.051 OD450; with Pep2 it was 0.05 OD450; with Pep8, 0.047 OD450; in the experiment with Pep15 it was 0.052 OD450. This molecule yielded an OD450 in the experiment with Pep12 of 0.053 OD450.

B2: 874F7-Hu1 (antibody, human IgG4 S228P, kappa)
heavy: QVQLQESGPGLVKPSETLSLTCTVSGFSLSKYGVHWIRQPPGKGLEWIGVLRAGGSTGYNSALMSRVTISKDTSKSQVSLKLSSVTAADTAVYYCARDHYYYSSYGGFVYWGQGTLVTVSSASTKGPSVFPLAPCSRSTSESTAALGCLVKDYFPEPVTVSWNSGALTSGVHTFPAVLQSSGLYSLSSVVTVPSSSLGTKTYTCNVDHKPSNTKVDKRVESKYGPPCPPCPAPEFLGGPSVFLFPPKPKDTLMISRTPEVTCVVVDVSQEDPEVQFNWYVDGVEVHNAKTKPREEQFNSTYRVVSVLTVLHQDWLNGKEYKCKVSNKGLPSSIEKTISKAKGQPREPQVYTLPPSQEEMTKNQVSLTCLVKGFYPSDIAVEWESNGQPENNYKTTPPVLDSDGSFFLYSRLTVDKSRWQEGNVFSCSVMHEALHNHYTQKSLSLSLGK
light: DIQMTQSPSSVSASVGDRVTITCLASQTIGAWLAWYQQKPGKSPKLLIYAATRLADGVPSRFSGSGSGTDFTLTISSLQPEDFATYYCQQLDSSPYTFGQGTKVEIKRTVAAPSVFIFPPSDEQLKSGTASVVCLLNNFYPREAKVQWKVDNALQSGNSQESVTEQDSKDSTYSLSSTLTLSKADYEKHKVYACEVTHQGLSSPVTKSFNRGEC
notes: also called 874F7-Hul; humanized antibody 874F7-Hu1
B2: the midpoint of the response in experiment [1], the EC50, lay at 0.43 nM.

These data come from patent US20230399394A1 (SUNSHINE GUOJIAN PHARMACEUTICAL SHANGHAI, published 2023).
